Measured values taken from PMC5843284.

Legend:
[1] = target: HIV-1 group M capsid (HIV-1 group M)
[2] = target: HIV-1 group M capsid (HIV-1 group M); remark: listed apart in the source

Substance: human TRIM-RanCyp with the gorilla residue 75R
- fold decrease in fold change of restriction of single-cycle HIV-1 infection in CRFK cells stably expressing the TRIM fusion, against human TRIM-RanCyp [1]: 70 fold

Substance: red-capped mangabey TRIM-RanCyp
- fold restriction of single-cycle HIV-1 infection in CRFK cells stably expressing the TRIM fusion, against the negative control [2]: 100 fold

Substance: titi monkey TRIM-RanCyp
- fold restriction of single-cycle HIV-1 infection in CRFK cells stably expressing the TRIM fusion, against the negative control [2]: 100 fold

Substance: chimpanzee TRIM-RanCyp
- fold restriction of single-cycle HIV-1 infection in CRFK cells stably expressing the TRIM fusion, against the negative control [2]: 100 fold

Substance: gorilla TRIM-RanCyp with the human residue 75G
- fold change of restriction of single-cycle HIV-1 infection in CRFK cells stably expressing the TRIM fusion, against gorilla TRIM-RanCyp [1]: 35 fold

Substance: orangutan TRIM-RanCyp
- fold restriction of single-cycle HIV-1 infection in CRFK cells stably expressing the TRIM fusion, against the negative control [2]: 100 fold

Substance: gorilla TRIM-RanCyp
- fold restriction of single-cycle HIV-1 infection in CRFK cells stably expressing the TRIM fusion, against the negative control [2]: 2 fold

Substance: marmoset TRIM-RanCyp
- fold restriction of single-cycle HIV-1 infection in CRFK cells stably expressing the TRIM fusion, against the negative control [2]: 100 fold
